This is an account of results in publication PMC7781310.

Assay [1] concerns the target Wild type sACE2_(2)-IgG1 (human) (UniProt Q9BYF1). Description: BLI.
Assay [2] addresses sACE2_(2).v2.4-IgG1 (human) (UniProt Q9BYF1). Description: BLI.

pKd: −log10 of the molar value.

For the substance LYRa11 RBD-8h (domain or fragment), the pKd in assay [1] is 7.04; in assay [2], 8.74. Besides, the off-rate (koff) is 0.079 s⁻¹ in assay [1] and 0.0025 s⁻¹ in assay [2].

As for Rs4084 RBD-8h (domain or fragment), the pKd was 7.07 in assay [1] and 8.51 in assay [2]. For the same substance, the koff in assay [1] is 0.025 s⁻¹; in assay [2], 0.0015 s⁻¹.

In the case of Rs4231 RBD-8h (domain or fragment), in assay [1], the pKd is 7.16 and the koff was 0.022 s⁻¹. Further, in assay [2], the pKd is 8.46 and the koff was found to be 0.0016 s⁻¹.

In assay [1], Rs7327 RBD-8h (domain or fragment) showed a pKd of 7.20 and a koff of 0.04 s⁻¹. Further, in assay [2], the pKd was 8.72 and the koff is 0.0018 s⁻¹.

RsSHC014 RBD-8h (domain or fragment) registered a dissociation rate constant (koff) in assay [2] of 0.002 s⁻¹.

Broadly, the pKd is −log10 of the Kd, conventionally taken in molar units. One may read the koff as a measure of how fast the partners let go of each other.
